Test results: patent publication US20040071710A1

Tests used:
[1] = target: E2 BEVS, recombinant HCV genotype 1b E2 protein produced in insect cells using Baculovirus (hepatitis C virus genotype 1b); assay: ELISA, E2-BEVS coated at 2 µg/ml, antibody at 1 µg/ml
[2] = target: E2 BEVS, recombinant HCV genotype 1b E2 protein produced in insect cells using Baculovirus (hepatitis C virus genotype 1b); assay: ELISA, E2-BEVS coated at 2 µg/ml, antibody at 0.0078 µg/ml
[3] = target: E2 BEVS, recombinant HCV genotype 1b E2 protein produced in insect cells using Baculovirus (hepatitis C virus genotype 1b); assay: ELISA, E2-BEVS coated at 2 µg/ml, antibody at 0.0625 µg/ml
[4] = target: E2 BEVS, recombinant HCV genotype 1b E2 protein produced in insect cells using Baculovirus (hepatitis C virus genotype 1b); assay: ELISA, E2-BEVS coated at 2 µg/ml, antibody at 0.125 µg/ml
[5] = target: E2 CHO, recombinant HCV genotype 1b E2 protein produced in mammalian CHO cells (hepatitis C virus genotype 1b); assay: BIAcore 2000 (SPR)
[6] = target: E2 BEVS, recombinant HCV genotype 1b E2 protein produced in insect cells using Baculovirus (hepatitis C virus genotype 1b); assay: BIAcore 2000 (SPR)
[7] = target: HCV particles from sera of HCV infected patients (hepatitis C virus genotype 1b and 1a/1b); assay: immuno magnetic separation of virus from patient serum, RT-PCR detection
[8] = target: E2 BEVS, recombinant HCV genotype 1b E2 protein produced in insect cells using Baculovirus (hepatitis C virus genotype 1b); assay: ELISA, E2-BEVS coated at 2 µg/ml, antibody at 0.0156 µg/ml
[9] = target: E2 BEVS, recombinant HCV genotype 1b E2 protein produced in insect cells using Baculovirus (hepatitis C virus genotype 1b); assay: ELISA, E2-BEVS coated at 2 µg/ml, antibody at 0.5 µg/ml
[10] = target: E2 BEVS, recombinant HCV genotype 1b E2 protein produced in insect cells using Baculovirus (hepatitis C virus genotype 1b); assay: ELISA, E2-BEVS coated at 2 µg/ml, antibody at 0.25 µg/ml
[11] = target: E2 BEVS, recombinant HCV genotype 1b E2 protein produced in insect cells using Baculovirus (hepatitis C virus genotype 1b); assay: ELISA, E2-BEVS coated at 2 µg/ml, antibody at 0.03125 µg/ml

Sequence of E2 CHO, recombinant HCV genotype 1b E2 protein produced in mammalian CHO cells (hepatitis C virus genotype 1b) (P26664 384-714): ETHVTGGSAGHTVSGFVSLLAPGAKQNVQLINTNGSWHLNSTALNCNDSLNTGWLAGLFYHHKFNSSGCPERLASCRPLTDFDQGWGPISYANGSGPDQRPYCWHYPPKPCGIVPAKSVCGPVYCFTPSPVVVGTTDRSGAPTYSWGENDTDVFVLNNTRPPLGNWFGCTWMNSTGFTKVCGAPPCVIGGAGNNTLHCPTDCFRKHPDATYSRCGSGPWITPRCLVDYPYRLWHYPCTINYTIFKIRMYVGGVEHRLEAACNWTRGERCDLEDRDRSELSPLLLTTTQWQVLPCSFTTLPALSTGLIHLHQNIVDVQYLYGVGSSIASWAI

B1: HCV-AB 68 (antibody, V domains shown)
VH: QVQLVESGGGVVQPGRSLRLSCATSGFPFSSYGMHWVRQAPGKGLEWVAVISYDGSNEHSIDSVKGRFTISRDNSKNRLYLQMKSLRAEDMAVYFCVRGAHRSSWSGKRFDYWGQGTLVTVSS
VL: DIQMTQSPSTLSASIGDRVTITCRASLNILTWLAWYQQKPGKAPKLLIYEASSLESGVPSRFSGSGSGTQFTLTISSLQPDDFATYYCQQSNTPWTFGQGTKVEIKR
- OD450 nm [1]: 0.439 OD450 nm
- OD450 nm [2]: 0.065 OD450 nm
- OD450 nm [3]: 0.204 OD450 nm
- OD450 nm [4]: 0.267 OD450 nm
- Kd [5]: 0.014 nM
- Kd [6]: 1.7 nM
- percentage of bound virus [7]: 50%
- OD450 nm [8]: 0.12 OD450 nm
- OD450 nm [9]: 0.362 OD450 nm
- OD450 nm [10]: 0.305 OD450 nm
- OD450 nm [11]: 0.171 OD450 nm
